Assay [1] concerns the target T1, soluble His-tagged TIGIT (Acro Biosystems, Cat #No. TIT-H52H3) (human, UniProt Q495A1 22-141).
T1 construct: Bought protein; also called His-tagged human TIGIT
T1 sequence (looked up): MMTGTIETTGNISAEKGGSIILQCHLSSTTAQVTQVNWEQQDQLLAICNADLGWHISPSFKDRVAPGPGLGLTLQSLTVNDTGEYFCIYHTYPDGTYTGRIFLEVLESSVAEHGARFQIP
The experiment in a line: SPR, ProteOn XPR36, antibody on Protein A chip, soluble His-tagged TIGIT as analyte, 25 C. On the procedure: The kinetic binding of these recombinant anti-TIGIT antibodies to human TIGIT was determined by surface plasmon resonance (SPR) using a Bio-Rad ProteOn XPR36 instrument. Recombinant antibodies were immobilized using a Protein A coated GLC sensor chip, and soluble His-tagged TIGIT (Acro Biosystems, Cat #No. TIT-H52H3) was used as the analyte. The binding constants were determined at 25° C.
(In general: Surface plasmon resonance follows binding to a sensor surface in real time, without labels.)

The target of assay [2] is T2, human TIGIT, full length, on cells (human, UniProt Q495A1 22-244).
T2 construct: also called hTIGIT; hTIGIT-CHO
T2 sequence: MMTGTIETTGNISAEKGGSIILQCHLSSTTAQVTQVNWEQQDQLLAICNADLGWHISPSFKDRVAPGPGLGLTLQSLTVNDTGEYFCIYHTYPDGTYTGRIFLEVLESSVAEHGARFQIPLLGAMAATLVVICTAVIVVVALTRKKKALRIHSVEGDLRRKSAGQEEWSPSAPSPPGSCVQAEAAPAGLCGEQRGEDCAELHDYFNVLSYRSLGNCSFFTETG
The assay is described as follows: flow cytometry on hTIGIT-CHO cells. The method, then:
(§1) These clones were further expanded, and antibodies were purified using a Protein G column. These purified antibodies were tested for binding to human and cyno TIGIT expressed on cell surface by flow cytometry. Stable CHO-K1 cell lines expressing full length human TIGIT clone 2A7 (Swiss-Prot Q495A1; SEQ ID NO: 80) or full length cyno TIGIT clone C10 (Swiss-Prot A0A2K5UW92; SEQ ID NO: 84) were developed. For the flow assay, cells were collected and incubated in 100 μL of HBSS buffer in the presence (or absence) of various concentrations of antibodies for 1 hr at 4° C. After washing with HBSS, antibody binding on cells was detected with 2 μg/mL of Alexa488-labeled goat anti-mouse IgG antibody (ThermoFisher Scientific, Cat #A-11001) for 30 min at 4° C. Cells were then washed and resuspended in PBS and subjected to flow cytometry using an Attune NxT flow cytometer (ThermoFisher Scientific, Waltham, Mass.). The geometric mean of the fluorescence intensity was obtained for the whole single cell population. Antibodies capable of binding to both human and cyno TIGIT expressed on cell surface were further tested for their blocking activity against recombinant human CD155 binding to human TIGIT on the surface of CHO cells. CHO-hTIGIT cells (10⁵ cells) were incubated with 2.5 μg/mL hCD155-Fc protein in the presence of various concentrations of antibody at room temperature for 1 hr. […] Cells were then washed and subjected to flow cytometry analysis.
(§2) The binding capability of these chimera anti-TIGIT antibodies to cell surface overexpressed human and cyno TIGIT was confirmed utilizing the flow cytometry assay previously described. After incubation of chimera anti-TIGIT antibody with hTIGIT-CHO or cTIGIT-CHO, bound antibody was detected using Alexa488 conjugated goat anti-human IgG antibody (ThermoFisher Scientific, Cat #A-11013). Antibody functional activity in inhibiting recombinant hCD155-hFc binding to hTIGIT-CHO-K1 cells was also determined using flow assay as previously described.
(In general: Flow cytometry measures light scatter and fluorescence of single cells or particles in a stream.)

Assay [3] has as its target T2, human TIGIT, full length, on cells. The assay is described as follows: flow cytometry, inhibition of hCD155-hFc binding to hTIGIT-CHO-K1 cells. The method, then:
as §1, §2

For assay [4] the target is unchanged. The assay is described as follows: flow cytometry, endogenous TIGIT on isolated human CD8+ T cells. The method, then: (§3) The ability of chimera anti-TIGIT antibodies to bind to endogenously expressed TIGIT on isolated human CD4⁺ and CD8⁺ cells was tested using a flow cytometry assay. Human CD4⁺ or CD8⁺ T cells were isolated from human whole blood using RosetteSep™ Human CD4⁺ T cell Enrichment Cocktail (Stemcell, Cat #15022) or Human CD8⁺ T cell enrichment Cocktail (Stemcell, […]), respectively. […] However, differences in max binding activity (MFImax) was observed between clones.

The target in assay [5] is T3, cTIGIT-His (cynomolgus monkey).
T3 construct: also called His-tagged cyno TIGIT protein extracellular domain; soluble cTIGIT-His
T3 chain: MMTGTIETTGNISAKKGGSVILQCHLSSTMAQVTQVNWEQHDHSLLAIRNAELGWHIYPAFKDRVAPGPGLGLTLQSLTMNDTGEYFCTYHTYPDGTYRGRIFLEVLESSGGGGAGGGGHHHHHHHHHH
The assay is described as follows: SPR, Biacore T200, antibody captured on anti-human IgG chip, cTIGIT-His as analyte. On the procedure: (§4) The purified, full-length antibodies Hu24F8.1-IgG1.AA (containing VH1+VL2) and Hu24F8.2-IgG1.AA (containing VH2+VL2), together with the full-length chimera antibody of 24F8 mouse VH+VL and human IgG1/kappa constant domains (Ch24F8), were analyzed by SPR using a Biacore T200 instrument with antibody capture using an anti-human IgG coated chip and soluble hTIGIT-His or cTIGIT-His as the analyte.

Assay [6] concerns the target T4, hTIGIT-His (human).
T4 construct: also called His-tagged human TIGIT protein extracellular domain; soluble hTIGIT-His
T4 chain: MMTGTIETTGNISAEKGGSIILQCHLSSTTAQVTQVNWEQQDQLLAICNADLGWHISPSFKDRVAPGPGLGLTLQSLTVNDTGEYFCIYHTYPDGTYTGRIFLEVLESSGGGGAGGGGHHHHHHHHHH
The experiment in a line: SPR, Biacore T200, antibody captured on anti-human IgG chip, hTIGIT-His as analyte. The method, then:
as §4

In assay [7] the target is T2, human TIGIT, full length, on cells. The experiment in a line: flow cytometry, endogenous TIGIT on isolated human CD4+ T cells. The method, then: as §3
In assay [8] the target is T5, cynomolgus monkey TIGIT, full length, on cells (cynomolgus monkey).
T5 construct: Whole entry of 312 amino acids; also called cyno TIGIT; cTIGIT
The assay is described as follows: flow cytometry on cTIGIT-CHO cells. On the procedure: as §1, §2

The target of assay [9] is T2, human TIGIT, full length, on cells. The assay is described as follows: flow cytometry on stable CHO-K1 cells expressing human TIGIT (clone 2A7); human TIGIT, CHO-K1 clone 2A7, n=8. On the procedure:
(§5) Binding of antibodies Hu24F8.1-IgG1.AA and Hu24F8.2-IgG1.AA to TIGIT expressed on cell surface was examined by flow cytometry. Cells expressing TIGIT on cell surface were collected and incubated in 100 μL of HBSS Buffer in the presence (or absence) of various concentrations of antibody for 1 hr at 4° C. After washing with HBSS, antibody binding on cells was detected with 2 μg/mL of Alexa488-labeled goat anti-human IgG antibody (ThermoFisher Scientific, Cat #A-11013) for 30 min at 4° C. Cells were then washed and resuspended in PBS and subjected to flow cytometry using a Attune NxT flow cytometer (ThermoFisher Scientific, Waltham, Mass.). GeoMean of fluorescence intensity was obtained for the whole single cell population, and for transient transfection, non-transfected cells were used to gate for the positive binding cell population to obtain percent of positive cells. Data was calculated by GraphPad Prism using the standard 4-parameter curve fitting.
(§6) Stable CHO-K1 cell lines expressing human TIGIT (clone 2A7) and cyno TIGIT (clone C10) were used to test Hu24F8.1-IgG1.AA and Hu24F8.2-IgG1.AA for their binding to human TIGIT and cyno TIGIT, respectively, as described above. […] Hu24F8.2-IgG1.AA bound to human TIGIT with an EC₅₀ 0.29±0.15 nM (n=8) (FIG. 3A) and to cyno TIGIT with an EC₅₀ of 0.35±0.16 nM (n=6) (FIG. 3B).

For assay [10], the target named is T5, cynomolgus monkey TIGIT, full length, …. The experiment in a line: flow cytometry on stable CHO-K1 cells expressing cyno TIGIT (clone C10); cyno TIGIT, CHO-K1 clone C10, n=6. The method, then:
as §5, §6

The target of assay [11] is T2, human TIGIT, full length, on cells. The assay is described as follows: flow cytometry, inhibition of hCD155-Fc binding to CHO-hTIGIT cells. On the procedure:
The activity of Hu24F8.1-IgG1.AA and Hu24F8.2-IgG1.AA to block the interaction of TIGIT with CD155 was analyzed by flow cytometry using CHO cells stably overexpressing human TIGIT (CHO-hTIGIT) and human CD155-Fc fusion recombinant soluble protein (hCD155-Fc), as described in Example 1. […] The IC₅₀ for Hu24F8.1-IgG1.AA to block the TIGIT-CD155 interaction was 0.68 nM, and for Hu24F8.2-IgG1.AA it was 0.67 nM.

Assay [12] shares this target. The assay is described as follows: cell-based or functional assay.

B1: Ch24F8 (antibody, human IgG1, V domains shown)
VH: DVQLQESGPDLVKPSQSLSLTCTVTGYSITSGYSWHWIRQFPGNKLDWMGYVHYSGSTNYNPSLKSRISITRDTSKNQFFLQLNSVTTEDTATFYCARMDYGNYGGAMDYWGQGTSVTVSS
VL: EIVMTQSHKFMSTSVGDRVSITCKASQDVRTAVAWYQQKPGQSPKLLIYSASYRYTGVPDRFTGSGSGTDFTFTISSVQAEDLAVYYCQQYYSTQWTFGGGTKLEIK
notes: also called full-length chimera antibody of 24F8 mouse VH+VL and human IgG1/kappa constant domains
The term Kd denotes the equilibrium constant for the complex coming apart. As usually defined, the koff is a measure of how fast the partners let go of each other. What is called kon is the second-order rate constant of association. A word on the EC50: it is the concentration at which the effect is half-maximal. What is called IC50 is the concentration that inhibits the measured activity by half. As to B1, the Kd amounted to 0.035 nM in [1], 1.66 nM in assay [5] and 0.183 nM in [6]. The koff in [1] was 7.5e-05 s⁻¹; in [5], 0.00109 s⁻¹; in assay [6] it was 0.000156 s⁻¹. For the same molecule, the kon in assay [1] stood at 2.15e+06 M⁻¹ s⁻¹; in assay [5], 658000 M⁻¹ s⁻¹; in assay [6], 853000 M⁻¹ s⁻¹. Also, the EC50 in assay [2] was 0.15 nM; in assay [4], 0.177 nM; in assay [7], 0.13 nM; in assay [8], 0.199 nM. The IC50 in assay [3] was 0.62 nM. In addition, the “CD8+ MFImax” value in assay [4] amounted to 5800 MFI. Further, the “CD4+ MFImax” value in assay [7] was found to be 210 MFI.

B2: Hu24F8.1-IgG1.AA (antibody, V domains shown)
VH: QVQLQESGPGLVKPSETLSLTCAVYGYSITSGYSWHWIRQPPGKGLEWIGYVHYSGSTNYNPSLKSRVTISVDTSKNQFSLKLSSVTAADTAVYYCARMDYGNYGGAMDYWGQGTLVTVSS
VL: EIVMTQSPATLSVSPGERATLSCKASQDVRTAVAWYQQKPGQAPRLLIYSASYRYTGIPARFSGSGSGTEFTLTISSLQSEDFAVYYCQQYYSTQWTFGGGTKVEIKR
notes: IgG1/kappa; also called Hu24F8.1 (VH1+VL2), IgG1/kappa with L234A/L235A
With B2, the EC50 came to 0.447 nM in assay [9] and 0.237 nM in assay [10]. For the same molecule, the Kd in [5] was found to be 1.74 nM; in assay [6], 0.144 nM. The koff was found to be 0.0014 s⁻¹ in assay [5] and 0.000145 s⁻¹ in assay [6]. The kon was 806000 M⁻¹ s⁻¹ in [5] and 1.01e+06 M⁻¹ s⁻¹ in assay [6]. In addition, the half-maximal inhibitory concentration (IC50) in assay [11] amounted to 0.68 nM. Besides, in assay [12], the “EC50 of luciferase reporter activity, TIGIT/CD155 Blockade Bioassay (Jurkat cells overexpressing TIGIT with CD155 aAPC/CHO-K1 cells)” value is 3.35 nM.

The values are drawn from patent US20220064294A1 (ARCUS BIOSCIENCES, published 2022).
